T1: type I interferon cell surface receptor complex (IFNAR1/2 complex) expressed on Daudi Burkitt's lymphoma cells (human, UniProt P17181 28-557; P48551 27-515)
T1 construct: whole, on cells; Both chains together comprise the receptor for interferon-beta on the cells of the FACS assay; also called IFNAR1/2 cell surface receptor; cognate receptor on Daudi cells
T1 sequence (looked up) 1: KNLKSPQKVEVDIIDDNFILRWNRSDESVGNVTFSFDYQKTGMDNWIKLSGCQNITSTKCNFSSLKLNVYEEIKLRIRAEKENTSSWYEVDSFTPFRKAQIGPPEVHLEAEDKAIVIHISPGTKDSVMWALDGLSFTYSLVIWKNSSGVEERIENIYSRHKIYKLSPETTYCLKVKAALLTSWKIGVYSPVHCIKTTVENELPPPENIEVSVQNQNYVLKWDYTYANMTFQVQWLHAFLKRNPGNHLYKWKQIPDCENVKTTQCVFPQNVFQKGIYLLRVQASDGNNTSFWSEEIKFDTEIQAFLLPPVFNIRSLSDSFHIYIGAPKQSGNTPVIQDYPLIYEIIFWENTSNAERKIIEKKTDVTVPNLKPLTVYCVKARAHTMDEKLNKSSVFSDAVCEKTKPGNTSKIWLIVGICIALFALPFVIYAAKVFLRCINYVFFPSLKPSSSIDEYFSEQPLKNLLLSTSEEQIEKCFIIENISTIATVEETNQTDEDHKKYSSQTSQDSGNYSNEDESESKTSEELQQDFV
T1 sequence (looked up) 2: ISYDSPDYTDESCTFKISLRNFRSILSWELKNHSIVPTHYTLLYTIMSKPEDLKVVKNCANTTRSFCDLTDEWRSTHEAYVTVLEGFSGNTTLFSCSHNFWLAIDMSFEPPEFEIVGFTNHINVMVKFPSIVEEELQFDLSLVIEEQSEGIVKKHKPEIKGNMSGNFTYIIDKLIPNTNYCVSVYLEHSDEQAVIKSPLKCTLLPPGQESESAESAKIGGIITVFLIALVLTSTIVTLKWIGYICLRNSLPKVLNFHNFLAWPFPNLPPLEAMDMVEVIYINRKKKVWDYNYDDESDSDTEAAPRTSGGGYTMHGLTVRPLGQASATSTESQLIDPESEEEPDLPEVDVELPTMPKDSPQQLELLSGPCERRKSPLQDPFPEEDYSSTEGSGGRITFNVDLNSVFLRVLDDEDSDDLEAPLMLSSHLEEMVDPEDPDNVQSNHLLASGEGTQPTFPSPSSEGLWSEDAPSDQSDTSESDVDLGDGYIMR

T2: IFNAR2/Fc fusion protein (extracellular domain of the human IFNAR2 receptor chain fused to the hinge, CH2 and … (human, UniProt P48551 27-243))
T2 construct: extracellular domain; also called IFNAR2-ectodomain/Fc fusion protein; IFNAR/Fc; not shown: human IgG1 heavy chain constant region: hinge, CH2 and CH3 domains
T2 sequence (looked up): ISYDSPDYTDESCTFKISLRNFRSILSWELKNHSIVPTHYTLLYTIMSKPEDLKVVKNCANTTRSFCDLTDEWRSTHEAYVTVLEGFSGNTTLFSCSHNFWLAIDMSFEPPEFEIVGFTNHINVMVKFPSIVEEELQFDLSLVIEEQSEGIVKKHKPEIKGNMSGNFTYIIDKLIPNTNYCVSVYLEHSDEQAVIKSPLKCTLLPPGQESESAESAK


Tests used:
[1] = target: T1, type I interferon cell surface receptor …; assay: FACS receptor binding assay on Daudi cells; wild type is the reference (100 %), its value is not given
Procedure: A second receptor binding assay was used to measure the affinity with which the interferon-beta mutants bound to Daudi cells expressing both receptor chains, IFNAR1 and IFNAR2, which together comprise the receptor for interferon-beta. This FACS-based assay used a blocking monoclonal antibody directed against the extracellular domain of IFNAR1, EA12 (Biogen, Inc.), to distinguish unoccupied (free) receptor from receptor to which interferon-beta was bound. Daudi cells (20 μl at 2.5×10⁷ cells/ml) were placed in 96-well V-bottom ELISA plates, and incubated for 1 hour at 4° C. with various concentrations of interferon-beta mutant (20 μl in FACS buffer; 5% FBS, 0.1% NaN₃ in PBS). Desirable serial dilutions of interferon-beta mutants ranged from 0.5 μM down to 0.5 pM. To each well was added 100 ng of biotinylated murine anti-IFNAR1 monoclonal antibody EA12 (10 μl), and the plates incubated for an additional 2 minutes at room temperature before being washed twice with FACS buffer (4° C.). […] The samples were then analyzed by flow cytometry on a FACScan (Becton Dickinson). […]

[2] = target: T2, IFNAR2/Fc fusion protein (extracellular …); assay: ELISA on captured IFNAR2-Fc; wild type is the reference (100 %), its EC50 is not given
Procedure: The receptor binding properties of the Interferon-beta mutants described in C were assessed using two different binding assays. One assay measured binding of the interferon-beta mutants to a fusion protein, IFNAR2/Fc, comprising the extracellular domain of the human IFNAR2 receptor chain fused to part of the constant region of a human IgG. IFNAR2-Fc was expressed in chinese hamster ovary (CHO) cells and purified by protein A sepharose affinity chromatography according to the instructions of the manufacturer (Pierce Chem. Co., Rockford, Ill., catalog #20334). The binding of interferon-beta mutants to IFNAR2-Fc was measured in an ELISA format assay. […] Binding of the interferon-beta mutants to IFNAR2-Fc was measured by adding 50 μl/well mutant interferon-beta in conditioned media, serially diluted in Dulbecco's Modified Eagle's Medium (DMEM) supplemented with 10% fetal bovine serum, and incubating for 2 hours at 4° C. […] After washing, interferon-beta bound to the plates was detected by adding 50 μl/well of a cocktail consisting of a 1:1000 dilution of a rabbit polyclonal anti-interferon antibody (#447, Biogen, Inc.) plus horseradish peroxidase (HRP)-labelled donkey anti-rabbit IgG (Jackson ImmunoResearch), and incubating for 15 minutes at 4° C. […]

[3] = target: T2, IFNAR2/Fc fusion protein (extracellular …); assay: ELISA, IFNAR2-Fc captured on anti-human IgG1 antibody, mutant in conditioned medium
Procedure: The receptor binding properties of the Interferon-beta mutants described in C were assessed using two different binding assays. One assay measured binding of the interferon-beta mutants to a fusion protein, IFNAR2/Fc, comprising the extracellular domain of the human IFNAR2 receptor chain fused to part of the constant region of a human IgG. IFNAR2-Fc was expressed in chinese hamster ovary (CHO) cells and purified by protein A sepharose affinity chromatography according to the instructions of the manufacturer (Pierce Chem. Co., Rockford, Ill., catalog #20334). The binding of interferon-beta mutants to IFNAR2-Fc was measured in an ELISA format assay. ELISA plates were prepared by coating flat-bottomed 96 well plates overnight at 4° C. with 50 μl/well of mouse anti-human IgG1 monoclonal antibody (CDG5-AA9, Biogen, Inc.) at 10 μg/ml in coating buffer (50 mM NaHCO₃, 0.2 mM MgCl₂, 0.2 mM CaCl₂, pH 9.6). Plates were washed twice with PBS containing 0.05% Tween-20, and blocked with 0.5% non-fat dry milk in PBS for 1 hour at room temperature. After two more washes, 50 μl of 1 μg/ml IFNAR2-Fc in 0.5% milk in PBS containing 0.05% Tween-20 was added to each well and incubated for 1 hour at room temperature, and the plates were then washed twice more. Binding of the interferon-beta mutants to IFNAR2-Fc was measured by adding 50 μl/well mutant interferon-beta in conditioned media, serially diluted in Dulbecco's Modified Eagle's Medium (DMEM) supplemented with 10% fetal bovine serum, and incubating for 2 hours at 4° C. Dilutions of interferon-beta mutant typically ranged from approximately 1 μM down to 10 pM. After washing, interferon-beta bound to the plates was detected by adding 50 μl/well of a cocktail consisting of a 1:1000 dilution of a rabbit polyclonal anti-interferon antibody (#447, Biogen, Inc.) plus horseradish peroxidase (HRP)-labelled donkey anti-rabbit IgG (Jackson ImmunoResearch), and incubating for 15 minutes at 4° C. After two washes, HRP substrate was added, and the plate was incubated at 4° C. before being read on an ELISA plate reader at an absorbance of 450 nm. Data were plotted as absorbance versus the concentration of mutant interferon-beta, and the affinity for the binding of the mutant interferon-beta to IFNAR2-Fc was determined by fitting the data to a simple hyperbolic binding equation.

[4] = target: T2, IFNAR2/Fc fusion protein (extracellular …); assay: ELISA on captured IFNAR2-Fc
Procedure: FIG. 3. Binding of alanine substituted interferon-beta mutants to a dimeric fusion protein comprised of the extracellular domain of the type I interferon receptor chain, IFNAR2/Fc. The binding affinities of the alanine substituted IFN mutants (A1-E) for the IFNAR2 receptor chain were determined as described in Example 1 (subsection D). The histogram presents their binding affinities in this assay relative to wild type his-IFN-beta (% w.t.). The % w. t. values were calculated as the (affinity of wild type his-IFN-beta)/(affinity of mutant IFN-beta)×100. The % w. t. (x) for multiple assays (n=3) and an average % w.t. (x) for the experimental set are shown.
The receptor binding properties of the Interferon-beta mutants described in C were assessed using two different binding assays. One assay measured binding of the interferon-beta mutants to a fusion protein, IFNAR2/Fc, comprising the extracellular domain of the human IFNAR2 receptor chain fused to part of the constant region of a human IgG. IFNAR2-Fc was expressed in chinese hamster ovary (CHO) cells and purified by protein A sepharose affinity chromatography according to the instructions of the manufacturer (Pierce Chem. Co., Rockford, Ill., catalog #20334). The binding of interferon-beta mutants to IFNAR2-Fc was measured in an ELISA format assay. ELISA plates were prepared by coating flat-bottomed 96 well plates overnight at 4° C. with 50 μl/well of mouse anti-human IgG1 monoclonal antibody (CDG5-AA9, Biogen, Inc.) at 10 μg/ml in coating buffer (50 mM NaHCO₃, 0.2 mM MgCl₂, 0.2 mM CaCl₂, pH 9.6). Plates were washed twice with PBS containing 0.05% Tween-20, and blocked with 0.5% non-fat dry milk in PBS for 1 hour at room temperature. After two more washes, 50 μl of 1 μg/ml IFNAR2-Fc in 0.5% milk in PBS containing 0.05% Tween-20 was added to each well and incubated for 1 hour at room temperature, and the plates were then washed twice more.

binding result [1] | binding result [2] | binding result [3] | concentration tested relative to the w.t. his-IFN-beta EC50 [4] [fold] | Binder
 |  | no binding | 500 | his tagged interferon-beta alanine substitution mutant A2 (ligand, glycosylated at Asn 80 of the interferon-beta moiety, also called A2 helix) SGGHHHHHHSSGDDDDKMSYNLLGFLQRSSNAACAALLAALNGRLEYCLKDRMNFDIPEEIKQLQQFQKEDAALTIYEMLQNIFAIFRQDSSSTGWNETIVENLLANVYHQINHLKTVLEEKLEKEDFTRGKLMSSLHLKRYYGRILHYLKAKEYSHCAWTIVRVEILRNFYFINRLTGYLRN
 |  | no binding | 500 | his tagged interferon-beta alanine substitution mutant AB2 (ligand, glycosylated at Asn 80 of the interferon-beta moiety) SGGHHHHHHSSGDDDDKMSYNLLGFLQRSSNFQCQKLLWQLNGRLEYCLKDRAAFAIPAEIKQLQQFQKEDAALTIYEMLQNIFAIFRQDSSSTGWNETIVENLLANVYHQINHLKTVLEEKLEKEDFTRGKLMSSLHLKRYYGRILHYLKAKEYSHCAWTIVRVEILRNFYFINRLTGYLRN
 |  | no binding | 500 | his tagged interferon-beta alanine substitution mutant E (ligand, glycosylated at Asn 80 of the interferon-beta moiety, also called E helix) SGGHHHHHHSSGDDDDKMSYNLLGFLQRSSNFQCQKLLWQLNGRLEYCLKDRMNFDIPEEIKQLQQFQKEDAALTIYEMLQNIFAIFRQDSSSTGWNETIVENLLANVYHQINHLKTVLEEKLEKEDFTRGKLMSSLHLKRYYGRILHYLKAKEYSHCAWTIVRAEILANFAFIARLTGYLRN

Second part, the binder before the results:

Binder | binding result [1] | binding result [2] | binding result [3] | concentration tested relative to the w.t. his-IFN-beta EC50 [4] [fold]
histidine tagged wild-type interferon-beta-1a (ligand, glycosylated at Asn 80 of the interferon-beta moiety (expressed in human EBNA 293 cells), Tested as conditioned medium of transfected EBNA 293 cells; also called his IFN-beta; His6-tagged) SGGHHHHHHSSGDDDDKMSYNLLGFLQRSSNFQCQKLLWQLNGRLEYCLKDRMNFDIPEEIKQLQQFQKEDAALTIYEMLQNIFAIFRQDSSSTGWNETIVENLLANVYHQINHLKTVLEEKLEKEDFTRGKLMSSLHLKRYYGRILHYLKAKEYSHCAWTIVRVEILRNFYFINRLTGYLRN | binds | binds |  | 
his tagged interferon-beta alanine substitution mutant AB1 (ligand, glycosylated at Asn 80 of the interferon-beta moiety) SGGHHHHHHSSGDDDDKMSYNLLGFLQRSSNFQCQKLLWQLNGRAAACAADRMNFDIPEEIKQLQQFQKEDAALTIYEMLQNIFAIFRQDSSSTGWNETIVENLLANVYHQINHLKTVLEEKLEKEDFTRGKLMSSLHLKRYYGRILHYLKAKEYSHCAWTIVRVEILRNFYFINRLTGYLRN |  |  | no binding | 500
